Source: article PMC9599842 (2022)

What was measured:
HcAb.RR359.D107A = test: BLI
HcAb.RR359.L110A = test: BLI

koff (HcAb.RR359.D107A): 0.00135 s⁻¹ | koff (HcAb.RR359.L110A): 0.00425 s⁻¹
B1: mEGFR-His recombinant protein (receptor)
chain: LEEKKVCQGTSNRLTQLGTFEDHFLSLQRMYNNCEVVLGNLEITYVQRNYDLSFLKTIQEVAGYVLIALNTVERIPLENLQIIRGNALYENTYALAILSNYGTNRTGLRELPMRNLQEILIGAVRFSNNPILCNMDTIQWRDIVQNVFMSNMSMDLQSHPSSCPKCDPSCPNGSCWGGGEENCQKLTKIICAQQCSHRCRGRSPSDCCHNQCAAGCTGPRESDCLVCQKFQDEATCKDTCPPLMLYNPTTYQMDVNPEGKYSFGATCVKKCPRNYVVTDHGSCVRACGPDYYEVEEDGIRKCKKCDGPCRKVCNGIGIGEFKDTLSINATNIKHFKYCTAISGDLHILPVAFKGDSFTRTPPLDPRELEILKTVKEITGFLLIQAWPDNWTDLHAFENLEIIRGRTKQHGQFSLAVVGLNITSLGLRSLKEISDGDVIISGNRNLCYANTINWKKLFGTPNQKTKIMNNRAEKDCKAVNHVCNPLCSSEGCWGPEPRDCVSCQNVSRGRECVEKCNILEGEPREFVENSECIQCHPECLPQAMNITCTGRGPDNCIQCAHYIDGPHCVKTCPAGIMGENNTLVWKYADANNVCHLCHANCTYGCAGPGLQGCEVWPSGPKIPS
